T1: CLEC-2 on washed mouse platelet (mouse) (UniProt Q9JL99)
T1 sequence (looked up): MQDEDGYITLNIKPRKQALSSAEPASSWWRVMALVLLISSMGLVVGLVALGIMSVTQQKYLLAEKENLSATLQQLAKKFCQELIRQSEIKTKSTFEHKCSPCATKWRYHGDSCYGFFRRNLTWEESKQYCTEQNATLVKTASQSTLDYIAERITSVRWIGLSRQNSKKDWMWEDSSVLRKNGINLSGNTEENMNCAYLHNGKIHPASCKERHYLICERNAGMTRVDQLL

B1: wild-type human Aggrus expressed in CHO cells (CHO/Aggrus-WT) (ligand, UniProt Q86YL7 23-162, looked up)
chain: ASTGQPEDDTETTGLEGGVAMPGAEDDVVTPGTSEDRYKSGLTTLVATSVNSVTGIRIEDLPTSESTVHAQEQSPSATASNVATSHSTEKVDGDTQTTVEKDGLSTVTLVGIIVGVLLAIGFIGAIIVVVMRKMSGRYSP
B2: Aggrus-D48A expressed in CHO cells (CHO/Aggrus-D48A) (ligand, human, UniProt Q86YL7 23-162, looked up)
chain: ASTGQPEDDTETTGLEGGVAMPGAEADVVTPGTSEDRYKSGLTTLVATSVNSVTGIRIEDLPTSESTVHAQEQSPSATASNVATSHSTEKVDGDTQTTVEKDGLSTVTLVGIIVGVLLAIGFIGAIIVVVMRKMSGRYSP

Biological target: T1, CLEC-2 on washed mouse platelet (mouse)
Experiment: cell-based or functional assay

| Binder | platelet aggregation-starting time (light transmittance, washed mouse platelet mixed with CHO cells) [min] | delay of the start of platelet aggregation against CHO/Aggrus-WT [min] |
| --- | --- | --- |
| B1 | 6 | – |
| B2 | 14 | 8 |

— patent US20210009683A1
